The values below come from US20250152743A1, “SYNPOPTOSIS CIRCUITS FOR PROGRAMMABLE CELL DEATH CONTROL” (California Institute of Technology, priority 2023, published 2025).

Experiment [1] deals with sender and receiver HEK cells.
Method: For experiments that involved circuit senders and receivers, sender HEK cells were seeded on a 12-well plate at a density of 0.6 million cells per well (day 1). On the following day (day 2), using Lipofectamine 3000 (Thermo Fisher), we transfected the sender cells with 450 ng of pLVX-M-PURO plasmid containing the cargo, 450 ng of M-psPAX2, and 100 ng of pCMV-VSV-G. To generate VLPs encoding two cargoes, we performed similar transfections using two cargo-containing plasmids, each at 225 ng. At 8 hours post transfection, we removed the media containing residual Lipofectamine particles, washed the cells gently with fresh media, and replaced the media. One day after transfection of sender cells (day 3), we typically seeded receiver HEK cells on a 24-well plate at a density of around 0.3 million cells per well or on a 96-well plate at around 75,000 cells per well. We also tried other receiver densities, in which case we needed to dilute the cells if they approached confluency during the course of the experiment. Two days after transfection of sender cells (day 4), we collected the sender supernatant, centrifuged it at 3,000 g for 5 min to remove cell debris, and passed it through a cellulose acetate filter with 0.45 μm pore size (VWR). […] After about 40 hours, we collected the co-cultured cells, stained them with Sytox, and analyzed cell death by flow cytometry. […]
Another experiment has as its system HEK cells. Description: Transient DNA transfection of HEK cells, Annexin/Sytox staining, flow cytometry. The format is cell-based, human. Here is the method: HEK cells were transiently co-transfected with DNA encoding the circuits, often along with Cherry, a fluorescent protein marker, and cells were analyzed by flow cytometry 16 to 24 hours later. To quantify cell death, the cells were strained with Annexin, Sytox, or both. Annexin stains apoptotic cells by binding to phosphatidylserine exposed on the outer leaflet, and pyroptotic cells by binding to phosphatidylserine in the inner leaflet after membrane permeabilization. In contrast, Sytox, a membrane-impermeable dye, primarily stains pyroptotic cells. Therefore, apoptotic cells are typically Annexin-high and Sytox-low, while pyroptotic cells are Annexin-high and Sytox-high (FIG. 7B). For simplicity, in experiments involving only a single death mode, a single relevant dye was often used. To focus on cells influenced by the circuits, the fraction of Annexin- or Sytox-positive cells was calculated after gating on the fluorescent co-transfection marker (FIG. 7C).
On the day before transfection, HEK cells were seeded at a density of 0.3-0.6 million cells per well on a 12-well plate, 0.1-0.3 million cells per well on a 24-well plate, or 15,000-50,000 cells per well on a 96-well plate. The cells were allowed to attach to the plate overnight, for at least 8 hours. On the day of transfection, we treated the cells with purified DNA plasmids encoding circuit components. In addition to plasmids encoding circuit components, we often included a plasmid encoding a fluorescent co-transfection marker, at roughly 50 ng DNA per well on a 24-well plate. Given the different number of molecular components in each synthetic circuit and their various relative ratios, the total amount of DNA ranged from 50 to 1 μg per well on a 24-well plate, and was scaled by […] when other 12-well or 96-well plates were used, respectively. On the same plate, we often equalized the total amount of DNA across all transfected wells, using a filler plasmid encoding the neomycin resistance gene. To transfect cells with plasmid DNA, we used three types of transfection reagents—Lipofectamine 2000 (Thermo Fisher), Lipofectamine 3000 (Thermo Fisher), and FuGENE HD (Promega), according to manufacturers' instructions. Briefly, for a typical transfection experiment on a 24-well plate, we mixed plasmids and the transfection reagent, around 200 ng of DNA per 1 μl of Lipofectamine 2000, in 25 μl of Opti-MEM reduced serum medium (Thermo Fisher), incubated the mixture for 5-10 min at room temperature, and then added another 25 μl of Opti-MEM before transferring the mixture dropwise to culture wells. We also performed some transfection experiments using the Lipofectamine 3000 kit (Thermo Fisher), at a ratio of 2,000 ng of DNA, 2 ul of 4 ul of P3000, and 3 μl of Lipofectamine 3000. We similarly diluted the mixture in Opti-MEM before adding it to cells. For transfection with FuGENE, we used a ratio of 4 μl FuGENE:1 μg of DNA, and incubated the DNA-FuGENE mixture at room temperature for 5 min before transfection. To enable protein expression from plasmids with a doxycycline-inducible promoter, doxycycline was added to the cell culture at a final concentration of 100 ng/mL. In experiments involving Q-VD-OPh, the compound was added to the cell culture at a final concentration of 30 μM, immediately after the cells received the transfection mixture. To transfect cells with in vitro transcribed mRNA, Lipofectamine MessengerMax (Thermo Fisher) was used. Briefly, for transfection of one well in a 96-well plate, 0.1 μL of Lipofectamine MessengerMAX was diluted in 1.25 μL Opti-MEM and incubated for 10 minutes at room temperature. mRNA was then added to Opti-MEM to the appropriate conditions at the following amounts: 12.5 ng of fluorescent co-transfection marker, 56.25 ng of protease, and 56.25 ng of engineered executioner. Diluted mRNA was then added to diluted MessengerMAX reagent and incubated for 5 minutes at room temperature before addition to Jurkat or THP-1 cells in RPMI media. […]
Background: In flow cytometry, cells or beads pass a laser one at a time.

Experiment [2] has as its system co-culture of engineered HEK cells that stably express Input 1, Input 2, or both, and wildtype cells. As to the kind of experiment: Synpoptosis gates in co-culture of four input-state cell lines, Annexin flow cytometry. The format is cell-based, human. The following applies: Input 1 TEVP (Cherry), Input 2 TVMVP (Citrine). As to the method: As a proof of concept for combinatorial targeting, the synpoptosis gates were tested in a co-culture of engineered HEK cells that stably express Input 1, Input 2, or both, and wildtype cells that express neither. Input 1 with Cherry and Input 2 with Citrine were co-expressed, such that the two fluorescent protein profiles represented input patterns (FIG. 4C, Quadrant layout). The co-culture of the four cell lines were then transfected with the synthetic apoptosis gates to analyze their killing specificity. Transfections of no caspase-3 (FIG. 4C, Mock) and active caspase-3 (FIG. 4C, Indiscriminate) were used to establish background and ceiling apoptosis levels, respectively. […] Similar killing specificities were observed when the synthetic pyroptosis gates were transfected into the co-culture (FIG. 4D).
For experiments that required stable transgene expression, stable cell lines were engineered using lentiviruses followed by antibiotic selection, or using the PiggyBac transposase system. […] The next day, the cells were co-transfected using Lipofectamine 2000 with three plasmids, pLVX-M-PURO (Addgene plasmid #125839) containing the gene of interest, the TEVP-activatable Citrine reporter for instance, psPAX2 (Addgene plasmid #12260), and pCMV-VSV-G (Addgene plasmid #8454). We kept the mass ratio of the three plasmids at 9:9:2 (450 ng:450 ng:100 ng). In some experiments involving cells stably expressing two or more transgenes, the lentiviruses were generated using multiple pLVX-M-PURO plasmids carrying different genes of interest. An alternative ratio of pLVX-M-PURO:psPAX2:pCMV-VSV-G was 2:2:1 (2.4 μg:2.4 μg:1.2 μg), which was used to generate lentiviruses for stable integration of IL-1β and IL-18 genes. […] The RasGC line, or HEK293 cells stably expressing human H-Ras G12V mutant along with a Cerulean fluorescence marker, was generated using the PiggyBac method. […] One week later, the cells were sorted based on Cerulean fluorescence to obtain the final RasGC line. […]

B1: TEVP-activatable GSDMA: GSDMA with TEVP cleavage site between N-terminal and C-terminal domains; SEQ ID NO: 16 (protein)
chain: MGSPVFEDVTRALVRELNPRGDLTPLDSLIDFKHFRPFCLVLRKRKSTLFWGARYVRTDYTLLDLLEPGSSPSDLTDSGNFSFKNMLDVQVQGLVEVPKTVKVKGTAGLSQSSTLEVQTLSVAPSALENLKKERKLSADHSFLNEMRYHEKNLYVVMEAVEAKQEVTVEQTGNANAIFSLPSLALLGLQGSLNNNKAVTIPKGCVLAYRVRLLRVFLFNLWDIPYICNDSMQTFPKIRRVPCSAFISPTQMISEEPEEEKLIGEENLYFQSMHEDFKTLKEEVQRETQEVEKLSPVGRSSLLTSLSHLLGKKKELQDLEQKLEGALDKGQKVTLEALPKDVLLSKDAMDAILYFLGALTELTEEQLKILVKSLEKKILPVQLKLVESTLEQNFLQDKEGVFPLQPDLLSSLGEEELTLTEALVGLSGLEVQRSGPQYAWDPDTRHNLCALYAGLSLLHLLSRKSNALTYCALS
As to B1, the sender cell death entry in experiment [1] is given as “neither circuit component alone triggered substantial sender cell death”. In addition, the “mode of cell death, Sytox and Annexin double staining” value with HEK cells (background of TEVP activating TEVP-activatable caspase-3) is recorded as “converted apoptosis to pyroptosis”. The “cell death without the activating TEVP” value in the experiment with HEK cells (expressed at high levels indicated by co-transfected Cherry) was “induced noticeable cell death even without the activating TEVP”.

B2: tobacco etch virus protease (protein)
chain: MGSGESLFKGPRDYNPISSTICHLTNESDGHTTSLYGIGFGPFIITNKHLFRRNNGTLLVQSLHGVFKVKNTTTLQQHLIDGRDMIIIRMPKDFPPFPQKLKFREPQREERICLVTTNFQTKSMSSMVSDTSCTFPSSDGIFWKHWIQTKDGQCGSPLVSTRDGFIVGIHSASNFTNTNNYFTSVPKNFMELLTNQEAQQWVSGWRLNADSVLWGGHKVFMVKPEEPFQPVKEATQLMNS
notes: viral input protease
For the molecule B2, the sender cell death result in experiment [1] is recorded as “neither circuit component alone triggered substantial sender cell death”. Also, the “activation of cognate engineered GSDMs containing the cleavage sites” value in the experiment on HEK cells (tev, tvmv and hcv sites) was “orthogonally activated their cognate engineered GSDMs”.

B3: AND-gated caspase-3: TEVP-activatable caspase-3 fused to a TVMVP-removable degron; SEQ ID NO: 23 (protein)
chain: MGSENTENSVDSKSIKNLEPKIIHGSESMDSGISLDNSYKMDYPEMGLCIIINNKNFHKSTGMTSRSGTDVDAANLRETFRNLKYEVRNKNDLTREEIVELMRDVSKEDHSKRSSFVCVLLSHGEEGIIFGTNGPVDLKKITNFFRGDRCRSLTGKPKLFIIQACRGTELDCGIETENLYFQSGVDDDMACHKIPVEADFLYAYSTAPGYYSWRNSKDGSWFIQSLCAMLKQYADKLEFMHILTRVNRKVATEFESFSFDATFHAKKQIPCIVSMLTKELYFYHGGSGLETVRFQSGSGSISLIAALAVDYVIGMENAMPWNLPADLAWFKRNTLNKPVIMGRHTWESIGRPLPGRKNIILSSQPSTDDRVTWVKSVDEAIAACGDVPEIMVIGGGRVIEQFLPKAQKLYLTHIDAEVEGDTHFPDYEPDDWESVFSEFHDADAQNSHSYCFEILERR
In the case of B3, in experiment [2], the “killing specificity, Annexin staining” value is listed as “triggered apoptosis predominantly in double-positive cells”.

B4: caspase-3 variant designed to activate in the presence of Input 1 and the absence of Input 2: TEVP-removable degron on small subunit, TVMVP-activatable N-degron on large subunit (SEQ ID NOs: 25, 26) (protein)
chain 1: MGSETVRFQYHKSGAWKLPVSLVKEQLEKKLQALEKKLAQLEWKNQALEKKLAQENTENSVDSKSIKNLEPKIIHGSESMDSGISLDNSYKMDYPEMGLCIIINNKNFHKSTGMTSRSGTDVDAANLRETFRNLKYEVRNKNDLTREEIVELMRDVSKEDHSKRSSFVCVLLSHGEEGIIFGTNGPVDLKKITNFFRGDRCRSLTGKPKLFIIQACRGTELDCGIETD
chain 2: MGSSGVDDDMACHKIPVEADFLYAYSTAPGYYSWRNSKDGSWFIQSLCAMLKQYADKLEFMHILTRVNRKVATEFESFSFDATFHAKKQIPCIVSMLTKELYFYHGGSGALKKELQANKKELAQLKWELQALKKELAQGGSGLENLYFQSGSGSISLIAALAVDYVIGMENAMPWNLPADLAWFKRNTLNKPVIMGRHTWESIGRPLPGRKNIILSSQPSTDDRVTWVKSVDEAIAACGDVPEIMVIGGGRVIEQFLPKAQKLYLTHIDAEVEGDTHFPDYEPDDWESVFSEFHDADAQNSHSYCFEILERR
Regarding B4, the “killing specificity, Annexin staining” value in experiment [2] is “restricted apoptosis to the corresponding cells”.

B5: OR-gated caspase-3: tandem TEVP and TVMVP cleavage sites at the inter-subunit linker of caspase-3; SEQ ID NO: 24 (protein)
chain: MGSENTENSVDSKSIKNLEPKIIHGSESMDSGISLDNSYKMDYPEMGLCIIINNKNFHKSTGMTSRSGTDVDAANLRETFRNLKYEVRNKNDLTREEIVELMRDVSKEDHSKRSSFVCVLLSHGEEGIIFGTNGPVDLKKITNFFRGDRCRSLTGKPKLFIIQACRGTELDCGIETENLYFQSETVRFQSGVDDDMACHKIPVEADFLYAYSTAPGYYSWRNSKDGSWFIQSLCAMLKQYADKLEFMHILTRVNRKVATEFESFSFDATFHAKKQIPCIVSMLTKELYFYH
Turning to B5, in experiment [2], the “killing specificity, Annexin staining” value was “caused apoptosis in single-positive and double-positive cells, sparing only double-negative cells”.
